1 molecule from PMC9526450 (Nature structural & molecular biology, 2022) can be followed below.

In the experiment the target is T1, Strep-tagged WT UBE2O from Expi293F cells (human, UniProt Q9C0C9 1-1292).
T1 sequence (looked up): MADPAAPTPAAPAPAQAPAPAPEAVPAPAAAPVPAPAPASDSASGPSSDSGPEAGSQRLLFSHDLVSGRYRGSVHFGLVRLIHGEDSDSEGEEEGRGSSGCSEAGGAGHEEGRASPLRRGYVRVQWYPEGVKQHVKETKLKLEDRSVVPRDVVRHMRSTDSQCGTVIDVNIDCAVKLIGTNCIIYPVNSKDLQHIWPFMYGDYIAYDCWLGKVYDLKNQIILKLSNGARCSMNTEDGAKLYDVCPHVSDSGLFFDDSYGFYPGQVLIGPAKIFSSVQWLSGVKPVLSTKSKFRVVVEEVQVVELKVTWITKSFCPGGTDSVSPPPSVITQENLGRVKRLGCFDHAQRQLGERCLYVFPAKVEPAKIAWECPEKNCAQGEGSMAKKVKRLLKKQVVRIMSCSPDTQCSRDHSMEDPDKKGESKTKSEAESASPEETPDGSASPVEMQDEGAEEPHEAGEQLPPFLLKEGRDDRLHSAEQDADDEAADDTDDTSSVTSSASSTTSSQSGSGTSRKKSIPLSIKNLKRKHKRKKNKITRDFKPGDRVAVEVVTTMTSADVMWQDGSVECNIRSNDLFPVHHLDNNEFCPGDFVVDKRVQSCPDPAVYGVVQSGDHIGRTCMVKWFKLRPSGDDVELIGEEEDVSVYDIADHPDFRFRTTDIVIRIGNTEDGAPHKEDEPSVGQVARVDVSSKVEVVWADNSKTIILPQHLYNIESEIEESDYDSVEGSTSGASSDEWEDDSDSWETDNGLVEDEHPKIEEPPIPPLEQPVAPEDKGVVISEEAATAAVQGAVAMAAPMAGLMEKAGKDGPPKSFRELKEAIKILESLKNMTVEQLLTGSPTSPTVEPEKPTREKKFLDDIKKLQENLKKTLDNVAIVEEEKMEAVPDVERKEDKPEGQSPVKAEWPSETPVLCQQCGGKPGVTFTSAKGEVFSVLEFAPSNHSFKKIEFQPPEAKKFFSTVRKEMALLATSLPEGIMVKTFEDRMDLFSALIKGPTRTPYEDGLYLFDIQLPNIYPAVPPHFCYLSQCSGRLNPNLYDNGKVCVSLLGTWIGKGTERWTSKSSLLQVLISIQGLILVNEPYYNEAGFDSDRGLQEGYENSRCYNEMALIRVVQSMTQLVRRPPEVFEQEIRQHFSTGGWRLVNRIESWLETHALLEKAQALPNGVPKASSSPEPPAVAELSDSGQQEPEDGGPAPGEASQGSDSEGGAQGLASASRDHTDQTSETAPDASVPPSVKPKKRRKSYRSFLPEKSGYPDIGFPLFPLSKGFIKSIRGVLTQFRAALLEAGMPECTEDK
The experiment can be described thus: SEC.

B1: purified Strep-tagged NAP1L1 (natural protein, human, UniProt P55209 1-391, looked up)
chain: MADIDNKEQSELDQDLDDVEEVEEEETGEETKLKARQLTVQMMQNPQILAALQERLDGLVETPTGYIESLPRVVKRRVNALKNLQVKCAQIEAKFYEEVHDLERKYAVLYQPLFDKRFEIINAIYEPTEEECEWKPDEEDEISEELKEKAKIEDEKKDEEKEDPKGIPEFWLTVFKNVDLLSDMVQEHDEPILKHLKDIKVKFSDAGQPMSFVLEFHFEPNEYFTNEVLTKTYRMRSEPDDSDPFSFDGPEIMGCTGCQIDWKKGKNVTLKTIKKKQKHKGRGTVRTVTKTVSNDSFFNFFAPPEVPESGDLDDDAEAILAADFEIGHFLRERIIPRSVLYFTGEAIEDDDDDYDEEGEEADEEGEEEGDEENDPDYDPKKDQNPAECKQQ
For B1, the binding result is on record as “binds”.
